In publication PMC8022922 one finds stoichiometry N data, which are given here for 1 substance.

A word on the stoichiometry N: it is the number of molecules, sites or subunits per partner or assembly.

The target in the assay is AfMAT1-1-1_(78–235) (Aspergillus fumigatus). In words: SEC. A general note: Size exclusion chromatography separates by hydrodynamic size, large species first.

Consider “AfMAT1-1-1_(78–235) (domain or fragment)”, for which the stoichiometry N came to 2.
